Article PMC4484435 (2015)

Target: transforming growth factor beta 1 (UniProt P01137 279-390)
Test: SPR

Sequence of transforming growth factor beta 1 (P01137 279-390): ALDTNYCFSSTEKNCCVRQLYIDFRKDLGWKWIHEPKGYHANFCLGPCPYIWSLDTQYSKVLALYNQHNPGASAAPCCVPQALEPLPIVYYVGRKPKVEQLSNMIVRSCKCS

B1: Leucine-rich α2-glycoprotein (natural protein)
chain: LKECLILQSAEGSTVSCHGPTEFPSSLPADTVHLSVEFSNLTQLPAAALQGCPGLRELHLSSNRLQALSPELLAPVPRLRALDLTRNALRSLPPGLFSTSANLSTLVLRENQLREVSAQWLQGLDALGHLDLAENQLSSLPSGLLASLGALHTLDLGYNLLESLPEGLLRGPRRLQRLHLEGNRLQRLEDSLLAPQPFLRVLFLNDNQLVGVATGSFQGLQHLDMLDLSNNSLSSTPPGLWAFLGRPTRDMQDGFDISHNPWICDKNLADLCRWLVANRNKMFSQNDTRCAGPEAMKGQRLLDVAELGSL
Q: How did the koff turn out when B1 was run?
A: 0.0589 s⁻¹
